According to patent US7563760 (GENETICS INSTITUTE, dated 2009):
Each block holds one binder with its values, some of them ahead of it. No end group written: not given here.

Experiments:
[1] = biological target: T1, P-selectin expressed on the surface of CHO cells (CHO:P-selectin cell line) (UniProt P16109 42-830, limits assumed); experiment: plate coated with chimera; adhesion of CHO:P-selectin cells (FIG. 17)
T1 construct: whole, on cells; also called P-selectin expressing CHO cells
T1 sequence (looked up): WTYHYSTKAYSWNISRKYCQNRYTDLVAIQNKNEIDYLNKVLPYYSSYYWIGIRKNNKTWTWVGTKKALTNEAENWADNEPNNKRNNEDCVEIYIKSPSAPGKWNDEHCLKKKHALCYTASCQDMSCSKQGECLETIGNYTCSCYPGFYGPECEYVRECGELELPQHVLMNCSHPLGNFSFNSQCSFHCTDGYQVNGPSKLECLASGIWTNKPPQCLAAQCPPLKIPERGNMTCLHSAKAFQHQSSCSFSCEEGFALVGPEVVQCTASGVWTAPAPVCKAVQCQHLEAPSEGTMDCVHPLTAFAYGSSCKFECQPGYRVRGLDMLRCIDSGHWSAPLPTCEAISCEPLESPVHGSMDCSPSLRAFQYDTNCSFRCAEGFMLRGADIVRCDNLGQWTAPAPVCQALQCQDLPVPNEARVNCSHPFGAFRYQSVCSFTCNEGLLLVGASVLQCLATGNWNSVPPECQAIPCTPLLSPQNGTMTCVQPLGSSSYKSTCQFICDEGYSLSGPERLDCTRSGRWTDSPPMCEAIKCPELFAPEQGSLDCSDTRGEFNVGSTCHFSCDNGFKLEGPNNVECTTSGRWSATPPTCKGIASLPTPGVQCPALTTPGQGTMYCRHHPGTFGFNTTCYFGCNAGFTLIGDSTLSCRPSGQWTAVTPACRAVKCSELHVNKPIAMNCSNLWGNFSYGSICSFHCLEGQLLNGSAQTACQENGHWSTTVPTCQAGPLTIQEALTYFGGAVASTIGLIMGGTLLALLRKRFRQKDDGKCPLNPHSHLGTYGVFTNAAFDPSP
Experimental: (§1) Quantitative adhesion of CHO:P-selectin, CHO:E-selectin and CHO:L-selectin expressing cells was performed as described in Example 4(c), with the following modifications: COS cell and antibodies were omitted. Instead, 48-well microtiter plates (Costar) were coated for 16 hours at 4° C. with varying quantities of protein A-purified soluble PSGL-1/Fc chimeras. The unbound material was removed and the coated wells were treated with Hank's buffered saline (HBS) with 1 mg/ml BSA and 2 mM CaCl_2 for 1 hour at 4° C. Tritium labeled CHO selectin expressing cells were added and binding quantitated as described in Example 4(c).

[2] = biological target: T2, E-selectin expressed on CHO cells (CHO:E-selectin) (UniProt P16581 22-610, limits assumed); experiment: plate coated with chimera; adhesion of CHO:E-selectin cells (FIG. 17)
T2 construct: whole, on cells; also called E-selectin expressing CHO cells; CHO cells which express E-selectin
T2 sequence (looked up): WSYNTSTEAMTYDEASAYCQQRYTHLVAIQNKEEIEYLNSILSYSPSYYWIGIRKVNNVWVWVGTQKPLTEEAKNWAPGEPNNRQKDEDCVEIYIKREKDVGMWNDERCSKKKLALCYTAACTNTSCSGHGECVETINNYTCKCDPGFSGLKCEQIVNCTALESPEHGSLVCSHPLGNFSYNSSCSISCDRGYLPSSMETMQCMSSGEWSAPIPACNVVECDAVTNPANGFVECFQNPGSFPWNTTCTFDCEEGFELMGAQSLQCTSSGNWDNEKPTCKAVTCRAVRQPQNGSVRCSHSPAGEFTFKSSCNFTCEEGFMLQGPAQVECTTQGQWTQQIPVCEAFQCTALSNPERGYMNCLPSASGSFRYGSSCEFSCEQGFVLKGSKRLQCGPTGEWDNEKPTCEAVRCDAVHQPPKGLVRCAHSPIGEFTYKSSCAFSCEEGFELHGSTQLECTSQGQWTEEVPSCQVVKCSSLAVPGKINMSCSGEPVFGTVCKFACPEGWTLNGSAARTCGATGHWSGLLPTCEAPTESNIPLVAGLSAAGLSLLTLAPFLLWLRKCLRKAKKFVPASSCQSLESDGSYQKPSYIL
Experimental: as §1

[3] = biological target: T1, P-selectin expressed on the surface of …; experiment: plate coated with chimera; adhesion of CHO:P-selectin cells (FIG. 19)
Experimental: as §1

[4] = biological target: T2, E-selectin expressed on CHO cells …; experiment: plate coated with chimera; adhesion of CHO:E-selectin cells (FIG. 20)
Experimental: as §1

[5] = biological target: T3, LEC-γ1, chimeric form of P-selectin conjugated to the Fc portion of a human IgGγ1 (human, UniProt P16109 42-771); experiment: affinity capture on P-selectin/IgG chimera protein A sepharose, EDTA elution, scintillation counting
T3 construct: extracellular domain; Built by known methods (Aruffo et al. 1991), made in CHO DUKX cells; also called P-selectin/IgG chimera; P-selectin/Fc chimera; not shown: Fc portion of a human IgGγ1
T3 sequence (looked up): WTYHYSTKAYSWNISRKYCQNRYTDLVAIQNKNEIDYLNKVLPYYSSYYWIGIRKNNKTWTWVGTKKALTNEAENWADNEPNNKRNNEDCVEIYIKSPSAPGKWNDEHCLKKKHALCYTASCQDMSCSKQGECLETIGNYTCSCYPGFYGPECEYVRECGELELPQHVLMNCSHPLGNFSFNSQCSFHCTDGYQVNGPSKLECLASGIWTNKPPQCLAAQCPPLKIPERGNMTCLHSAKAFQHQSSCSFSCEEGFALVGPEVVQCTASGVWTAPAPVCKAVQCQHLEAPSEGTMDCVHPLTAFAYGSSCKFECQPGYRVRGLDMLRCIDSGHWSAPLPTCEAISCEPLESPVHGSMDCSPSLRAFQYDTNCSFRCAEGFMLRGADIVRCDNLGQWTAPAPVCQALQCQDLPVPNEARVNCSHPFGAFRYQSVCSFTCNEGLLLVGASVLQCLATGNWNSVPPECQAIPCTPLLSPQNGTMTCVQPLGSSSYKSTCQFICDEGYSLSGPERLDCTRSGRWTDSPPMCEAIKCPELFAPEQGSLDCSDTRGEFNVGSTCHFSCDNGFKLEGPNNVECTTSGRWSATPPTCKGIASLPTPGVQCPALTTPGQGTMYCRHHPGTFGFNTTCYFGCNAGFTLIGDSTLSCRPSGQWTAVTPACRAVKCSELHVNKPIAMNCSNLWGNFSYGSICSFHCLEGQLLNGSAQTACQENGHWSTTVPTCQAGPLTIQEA
Experimental: U937 cells (approximately 6.5 ×10^7) were recovered from tissue culture plates and divided equally into two 50 mL cultures (final concentration of […]) containing fresh complete RPMI medium and 50 µCi/ml of ^3H-glucosamine hydrochloride (labels the protein-linked carbohydrate of glycoproteins [Varki, FASEB 5:226-235 (1991)]. After 48 hours incubation, the cells from both cultures were recovered by centrifugation and washed three times with PBS. The pelleted cells were suspended in 2.5 mL each of a lysis buffer containing 1% Triton X-100 and disrupted by probe sonication for two minutes. The detergent lysates were placed on ice for three hours and then resonicated for an additional two minutes. The lysates were centrifuged at 16,000 rpm for five minutes, the supernatants were recovered and each adjusted to 12 mL with lysis buffer containing no detergent. […]
Following incubation, the two parallel reaction mixtures were each centrifuged at 2,000 rpm and supernatants were discarded. […] A final 1 mL pre-elution wash of each resin pellet using buffer containing 0.01% Triton X-100 was conducted and these were retained for quantitation of radioactive counts by liquid scintillation counting (LSC). […] The supernatants were recovered by centrifugation and then quantitated by LSC.

[6] = biological target: T4, E-selectin/IgG chimera of Example 9 (human) (UniProt P16581); experiment: affinity capture on E-selectin/IgG chimera protein A sepharose, EDTA elution, scintillation counting
T4 sequence (looked up): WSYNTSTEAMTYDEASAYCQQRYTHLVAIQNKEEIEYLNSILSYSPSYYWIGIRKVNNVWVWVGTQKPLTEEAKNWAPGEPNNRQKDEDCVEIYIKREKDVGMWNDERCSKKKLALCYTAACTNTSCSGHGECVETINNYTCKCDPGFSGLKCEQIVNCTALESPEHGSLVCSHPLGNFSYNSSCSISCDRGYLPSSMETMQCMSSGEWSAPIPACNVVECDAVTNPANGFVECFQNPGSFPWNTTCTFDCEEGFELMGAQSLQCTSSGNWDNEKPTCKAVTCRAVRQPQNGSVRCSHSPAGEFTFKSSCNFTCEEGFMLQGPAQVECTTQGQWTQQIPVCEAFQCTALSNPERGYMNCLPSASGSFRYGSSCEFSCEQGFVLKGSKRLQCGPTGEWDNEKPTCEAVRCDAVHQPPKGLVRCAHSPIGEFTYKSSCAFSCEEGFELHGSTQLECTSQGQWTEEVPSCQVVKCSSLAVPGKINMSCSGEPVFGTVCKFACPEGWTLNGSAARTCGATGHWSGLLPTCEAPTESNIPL

[7] = biological target: T1, P-selectin expressed on the surface of …; experiment: adhesion of 3H-thymidine-labelled CHO:P-selectin cells to transfected COS cells
Experimental: COS cells were co-transfected with the pMT21:PL85 plasmid of Example 1 and the pEA.3/4FT plasmid of Example 2 by the same procedure used in the initial stages of screening. As controls, COS cells were transfected with pMT21:PL85 alone, or with pEA.3/4FT alone, or with a similar plasmid containing no insert ("mock"). 24 hours post-transfection, the transfected cells were trypsinized and distributed into Costar 6-well tissue culture plates. CHO:P-selectin cells were labeled for 16 hours with ^3H-thymidine using known methods and preincubated at 0.5×10^6 cells/ml for 30 minutes at 4° C. in α medium containing 1% BSA (control); α medium containing 1% BSA, 5 mM EDTA and 5 mM EGTA; α medium containing 1% BSA and 10 μg/ml of a neutralizing anti P-selectin monoclonal antibody; and α medium containing 1% BSA and a non-neutralizing anti-P-selectin monoclonal antibody. The preincubated cells were then added to the wells containing the transfected COS cells. After a 10 minute incubation, unbound cells were removed by 4 changes of medium. The bound CHO:P-selectin cells were released by trypsinization and quantified by scintillation counting.
Likewise, incubation with neutralizing anti-P-selectin antibody also eliminated specific binding, whereas non-neutralizing antibody had no effect. […]

binding result [1]: binds
binding result [2]: binds
B1: 47.Fc of Example 10, amino acids 42-88 of SEQ ID NO:2 fused to IgG Fc (Fc fusion)
chain: QATEYEYLDYDFLPETEPPEMLRNSTDTTPLTGPGTPESTTVEPAAR
modifications: not fully specified (C-terminus); also: glycosylated, co-expressed with 3/4FT, sites not given here
notes: also called pED.47.Fc product; not shown: NotI junction/linker of pED.Fc; Fc region of a human IgG1 from pED.PSL.Fc

binding result [3]: binds
binding result [4]: binds
B2: H24.Q70.148.Fc (Fc fusion)
chain: QATEYEYLDYDFLPETEPPEMLRHSTDTTPLTGPGTPESTTVEPAARRSTGLDAGGAVTELTTELANMGQLSTDSAAMEIQTTQPAATEAQTTPLAATEAQTTRLTATEAQTTPLAATEAQTTPPAATEAQTTQPTGLEAQTTAPAAM
modifications: glycosylated, co-expressed with 3/4FT
notes: also called pED.H24.Q70.148.Fc product; not shown: NotI junction/linker of pED.Fc; Fc region of a human IgG1

radiolabel in the EDTA eluate relative to the final pre-EDTA wash [5]: ≥ 10 fold
radiolabel in the EDTA eluate relative to the final pre-EDTA wash [6]: > 10 fold
B3: native PSGL-1 of U937 cells (major glycoprotein captured from detergent extracts) (ligand, human, UniProt Q14242 42-412, looked up)
chain: QATEYEYLDYDFLPETEPPEMLRNSTDTTPLTGPGTPESTTVEPAARRSTGLDAGGAVTELTTELANMGNLSTDSAAMEIQTTQPAATEAQTTQPVPTEAQTTPLAATEAQTTRLTATEAQTTPLAATEAQTTPPAATEAQTTQPTGLEAQTTAPAAMEAQTTAPAAMEAQTTPPAAMEAQTTQTTAMEAQTTAPEATEAQTTQPTATEAQTTPLAAMEALSTEPSATEALSMEPTTKRGLFIPFSVSSVTHKGIPMAASNLSVNYPVGAPDHISVKQCLLAILILALVATIFFVCTVVLAVRLSRKGHMYPVRNYSPTEMVCISSLLPDGGEGPSATANGGLSKAKSPGLTPEPREDREGDDLTLHSFLP
modifications: native myeloid glycosylation, 3H-glucosamine labelled
notes: 200-220 kD non-reduced, 100-120 kD reduced; also called U937 ligand; major U937 glycoprotein

fold binding of CHO:P-selectin cells relative to COS mock cells [7]: ~5.4 fold
B4: full-length P-selectin ligand protein (PSGL-1, pMT21:PL85) expressed with fucosylation (COS or CHO cells with 3/4FT, or LEC11 cells) (ligand)
chain: QATEYEYLDYDFLPETEPPEMLRNSTDTTPLTGPGTPESTTVEPAARRSTGLDAGGAVTELTTELANMGNLSTDSAAMEIQTTQPAATEAQTTPLAATEAQTTRLTATEAQTTPLAATEAQTTPPAATEAQTTQPTGLEAQTTAPAAMEAQTTAPAAMEAQTTPPAAMEAQTTQTTAMEAQTTAPEATEAQTTQPTATEAQTTPLAAMEALSTEPSATEALSMEPTTKRGLFIPFSVSSVTHKGIPMAASNLSVNYPVGAPDHISVKQCLLAILILALVATIFFVCTVVLAVRLSRKGHMYPVRNYSPTEMVCISSLLPDGGEGPSATANGGLSKAKSPGLTPEPREDREGDDLTLHSFLP
modifications: glycosylated; co-expressed with (α1,3/α1,4) fucosyltransferase (3/4FT) or made in SLex-positive LEC11 cells
notes: Encoded as amino acids 1-402; In blots and immunoprecipitations it stood as a membrane detergent extract; also called PSL; CD-PSGL-1 (R3.4) product
